The term Kd denotes a measure of binding affinity in units of concentration.

Data on one molecule can be found in publication PMC7854685, “Histone Parylation factor 1 contributes to the inhibition of PARP1 by cancer drugs” (Nature Communications, 2021).

Experiment [1] has as its target PARP1 - Nuc165 complex (Alexa488-labelled PARP1 bound to a recombinant nucleosome with DNA linker ends of 7 and 11 base pairs) (UniProt P09874). Briefly: FRET or BRET; as a1 but with olaparib (1 uM): Alexa647-HPF1 titrated into Alexa488-PARP1 premixed with Nuc165 (20 nM) and olaparib; binding buffer. (Bioluminescence resonance energy transfer reports proximity on the nanometre scale.)

Experiment [2] has the same target. Description: FRET or BRET; Alexa647-HPF1 (0.6-10,000 nM, […] dilutions) titrated into Alexa488-PARP1 premixed with Nuc165 (20 nM) and DMSO (control, no olaparib); binding buffer 50 mM Tris-HCl pH 8.0, 50 mM NaCl, 1 mM MgCl2, 0.1 mM EDTA, 0.01% IGEPAL; 384-well plate.

Sequence of PARP1 - Nuc165 complex (Alexa488-labelled PARP1 bound to a recombinant nucleosome with DNA linker ends of 7 and 11 base pairs) (P09874 whole entry, looked up, one chain of several): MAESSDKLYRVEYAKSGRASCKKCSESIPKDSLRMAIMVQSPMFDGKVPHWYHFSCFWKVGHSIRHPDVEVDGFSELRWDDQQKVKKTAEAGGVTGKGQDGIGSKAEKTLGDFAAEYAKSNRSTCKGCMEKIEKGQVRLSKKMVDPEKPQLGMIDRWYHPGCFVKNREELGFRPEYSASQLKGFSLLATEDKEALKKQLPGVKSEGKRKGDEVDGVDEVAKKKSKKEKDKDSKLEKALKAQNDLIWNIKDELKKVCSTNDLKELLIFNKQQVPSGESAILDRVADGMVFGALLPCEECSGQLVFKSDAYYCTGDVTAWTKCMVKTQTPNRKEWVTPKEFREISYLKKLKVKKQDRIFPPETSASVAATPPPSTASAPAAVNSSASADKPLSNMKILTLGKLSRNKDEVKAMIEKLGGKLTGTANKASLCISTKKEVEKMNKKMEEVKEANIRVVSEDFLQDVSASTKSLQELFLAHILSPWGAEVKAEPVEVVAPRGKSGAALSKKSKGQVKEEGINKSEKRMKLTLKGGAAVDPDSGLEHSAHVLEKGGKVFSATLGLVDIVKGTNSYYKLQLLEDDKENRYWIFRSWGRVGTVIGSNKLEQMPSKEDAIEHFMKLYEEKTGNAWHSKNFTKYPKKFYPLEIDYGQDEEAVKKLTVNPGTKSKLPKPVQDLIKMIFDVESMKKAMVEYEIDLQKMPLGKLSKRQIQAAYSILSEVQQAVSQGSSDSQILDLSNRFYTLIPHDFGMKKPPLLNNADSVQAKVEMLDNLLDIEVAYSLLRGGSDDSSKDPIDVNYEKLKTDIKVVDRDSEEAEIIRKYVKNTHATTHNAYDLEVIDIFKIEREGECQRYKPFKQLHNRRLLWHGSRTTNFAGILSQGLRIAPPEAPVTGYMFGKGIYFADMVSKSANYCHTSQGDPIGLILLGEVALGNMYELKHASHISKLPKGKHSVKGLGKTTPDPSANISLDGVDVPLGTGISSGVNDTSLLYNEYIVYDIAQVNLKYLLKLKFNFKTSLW

B1: Histone PARylation factor 1 (HPF1), labelled with Alexa647 (natural protein)
chain: LRKEVENHYKLSLPEDFYHFWKFCEELDPEKPSDSLSASLGLQLVGPYDILAGKHKTKKKSTGLNFNLHWRFYYDPPEFQTIIIGDNKTQYHMGYFRDSPDEFPVYVGINEAKKNCIIVPNGDNVFAAVKLFLTKKLREITDKKKINLLKNIDEKLTEAARELGYSLEQRTVKMKQRDKKVVTKTFHGAGLVVPVDKNDVGYRELPETDADLKRICKTIVEAASDEERLKAFAPIQEMMTFVQFANDECDYGMGLELGMDLFCYGSHYFHKVAGQLLPLAYNLLKRNLFAEIIEEHLANRSQENIDQLAA
modifications: Alexa647 C2 maleimide label (extent of labeling typically 50-100%)
For the molecule B1, the Kd in experiment [1] is 229 nM; in experiment [2] it was 790 nM.
